Experimental findings from PMC12237909, “Wheat endosperm-specific transcription factor TaDOF6 enhances grain development by regulating TaSWEET13h expression and facilitating sugar and gibberellin transport” are described below.

The target in this data set is T1, TaDOF6 (Triticum aestivum (wheat; cultivar of …, UniProt A0A3B6LII6 1-338).
T1 sequence: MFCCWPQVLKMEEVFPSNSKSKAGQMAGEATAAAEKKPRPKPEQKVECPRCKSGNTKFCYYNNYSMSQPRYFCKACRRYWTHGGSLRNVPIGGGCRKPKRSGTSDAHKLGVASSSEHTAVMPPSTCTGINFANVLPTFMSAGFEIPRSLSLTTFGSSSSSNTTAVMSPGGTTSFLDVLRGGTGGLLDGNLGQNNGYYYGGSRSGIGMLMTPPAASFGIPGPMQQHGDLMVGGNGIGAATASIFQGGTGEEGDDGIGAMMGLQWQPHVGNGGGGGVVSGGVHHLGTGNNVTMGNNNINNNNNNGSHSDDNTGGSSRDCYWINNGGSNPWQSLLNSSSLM
Nature of the data set: EMSA; EMSA buffer, salt, pH and temperature not stated (gel as in Zhang et al., 2016); probes annealed 95 C to 25 C. To be noted: protein: recombinant; tags: His (pETMALc-H vector); label: biotin (printed at both ends of each strand); blunt.

B1: TaSWEET13h promoter P-box probe (dsDNA)
DNA 1: ATTAAAGCTAAAGTGTACACCAAAGCGACAACTTTTG
DNA 2: CAAAAGTTGTCGCTTTGGTGTACACTTTAGCTTTAAT
With B1, the binding result is listed as “binds”.
